According to publication PMC6191539, “NadA3 Structures Reveal Undecad Coiled Coils and LOX1 Binding Regions Competed by Meningococcus B Vaccine-Elicited Human Antibodies” (mBio, 2018):

Molecular target: T1, full-length human LOX-1 fused to yellow fluorescent protein, expressed on CHO-K1 cells (human, UniProt P78380 1-273)
T1 construct: LOX-1 (low-density oxidized lipoprotein lectin-like receptor 1), human, full length, on transfected CHO-K1 cells; pEYFP-N1 usually places the YFP at the C-terminus of the insert (surmise); also called low-density oxidized lipoprotein lectin-like receptor 1; LOX-1-expressing cells; source: CHO-K1 cells, transiently transfected (pEYFP-N1 vector), on live cells
Test: flow cytometry on cells; CHO-K1 cells transiently expressing human LOX-1-YFP mixed with NadA3 protein (200 µg/ml) for 30 min at 37°C; detected with mouse polyclonal anti-NadA3 and APC-conjugated secondary antibody
Settings: one partner purified

B1: NadA3 24–170 K68A K69A D70A mutant (domain or fragment)
chain: ATNDDDVKKAATVAIAAAYNNGQEINGFKAGETIYDIDEDGTITAAAATAADVEADDFKGLGLKKVVTNLTKTVNENKQNVDAKVKAAESEIEKLTTKLADTDAALADTDAALDATTNALNKLGENITTFAEETKTNIVKIDEKLEA
notes: NadA3, N. meningitidis serogroup B strain 2996, UniProt Q8KH85, residues 24-170 with K68A, K69A and D70A
With B1 the “percent doubly positive cells (LOX-1 and NadA)” value was 49.8%.
